Test results as given in patent US20160235855A1, “STABLE AQUEOUS PARENTERAL PHARMACEUTICAL COMPOSITIONS OF INSULINOTROPIC PEPTIDES” (SHANGHAI BENEMAE PHARMACEUTICAL CORPORATION, priority 2013, published 2016).

Legend:
[1] = Absorption values at 360 nm (physical stability); assay type: physicochemical; settings: for Absorption values at 360 nm: 8 days
Text: (§1) If there was evident precipitation or turbidity, no further determination would be carried out. If the samples had no abnormal phenomena observable with the naked eye, the samples were taken and subjected to determination of absorption values at 360 nm and HPLC detection, wherein the former investigated the physical stability, and the latter investigated the chemical stability.
Absorption values determined at a wavelength of 360 nm were compared, so as to compare differences in physical stability among the samples. A higher absorption value indicated poorer physical stability.

[2] = Observation of appearance with the naked eye (physical stability); assay type: physicochemical
Text: Each buffer was also designed to have 4 salt concentrations.
as §1
The solutions were mixed uniformly, filtered through a 0.22 μm filter membrane, dispensed into 2 mL Penicillin bottles, and placed at different temperatures for investigation. A series of sampling time points were arranged. After sampling, the samples were firstly observed with the naked eye for appearance.
The solutions were adjusted to pH 3.5-4.0, mixed uniformly, filtered through a 0.22 μm filter membrane, dispensed into 2 mL Penicillin bottles, and placed at different temperatures for investigation. A series of sampling time points were arranged. The samples were firstly observed with the naked eye for appearance. If no evident turbidity or gelatination was occurred, the sample was considered as qualified as for physical stability, and then subjected to HPLC detection to analyze the chemical stability.

## Glucagon-like peptide 1 [GLP-1]
[1]; pH 3.0, NaCl 0 mg/mL, 35° C.
  Absorption values at 360 nm: 0.0706
[1]; pH 3.0, NaCl 0 mg/mL, 45° C.
  Absorption values at 360 nm: 0.0844
[1]; pH 3.0, NaCl 1.17 mg/mL, 35° C.
  Absorption values at 360 nm: 0.0716
[1]; pH 3.0, NaCl 1.17 mg/mL, 45° C.
  Absorption values at 360 nm: 0.0724
[1]; pH 3.0, NaCl 8.77 mg/mL, 45° C.
  Absorption values at 360 nm: 0.1812
[1]; pH 3.0, NaCl 29.22 mg/mL, 35° C.
  Absorption values at 360 nm: 0.2052
[1]; pH 3.0, NaCl 29.22 mg/mL, 45° C.
  Absorption values at 360 nm: 0.2417
[1]; pH 3.5, NaCl 0 mg/mL, 35° C.
  Absorption values at 360 nm: 0.0684
[1]; pH 3.5, NaCl 0 mg/mL, 45° C.
  Absorption values at 360 nm: 0.0689
[1]; pH 3.5, NaCl 1.17 mg/mL, 35° C.
  Absorption values at 360 nm: 0.0694
[1]; pH 3.5, NaCl 1.17 mg/mL, 45° C.
  Absorption values at 360 nm: 0.0823
[1]; pH 3.5, NaCl 8.77 mg/mL, 35° C.
  Absorption values at 360 nm: 0.1882
[1]; pH 3.5, NaCl 8.77 mg/mL, 45° C.
  Absorption values at 360 nm: 0.1780
[1]; pH 4.0, NaCl 0 mg/mL, 35° C.
  Absorption values at 360 nm: 0.0686
[1]; pH 4.0, NaCl 0 mg/mL, 45° C.
  Absorption values at 360 nm: 0.0843
[1]; pH 4.0, NaCl 1.17 mg/mL, 35° C.
  Absorption values at 360 nm: 0.1354
[1]; pH 4.0, NaCl 1.17 mg/mL, 45° C.
  Absorption values at 360 nm: 0.1448
[1]; pH 4.0, NaCl 8.77 mg/mL, 35° C.
  Absorption values at 360 nm: 0.1907
[1]; pH 4.0, NaCl 8.77 mg/mL, 45° C.
  Absorption values at 360 nm: 0.1974
[1]; pH 4.5, NaCl 0 mg/mL, 35° C.
  Absorption values at 360 nm: 0.1326
[1]; pH 4.5, NaCl 0 mg/mL, 45° C.
  Absorption values at 360 nm: 0.1370
[1]; pH 4.5, NaCl 1.17 mg/mL, 35° C.
  Absorption values at 360 nm: 0.1655
[1]; pH 4.5, NaCl 1.17 mg/mL, 45° C.
  Absorption values at 360 nm: 0.1814
[1]; pH 7.0, NaCl 0 mg/mL, 35° C.
  Absorption values at 360 nm: 0.0813
[1]; pH 7.0, NaCl 0 mg/mL, 45° C.
  Absorption values at 360 nm: 0.0828
[1]; pH 7.0, NaCl 1.17 mg/mL, 35° C.
  Absorption values at 360 nm: 0.0864
[1]; pH 7.0, NaCl 1.17 mg/mL, 45° C.
  Absorption values at 360 nm: 0.0865
[1]; pH 7.0, NaCl 8.77 mg/mL, 35° C.
  Absorption values at 360 nm: 0.0824
[1]; pH 7.0, NaCl 8.77 mg/mL, 45° C.
  Absorption values at 360 nm: 0.0841
[1]; pH 7.0, NaCl 29.22 mg/mL, 35° C.
  Absorption values at 360 nm: 0.0850
[1]; pH 7.0, NaCl 29.22 mg/mL, 45° C.
  Absorption values at 360 nm: 0.0862
[1]; pH 7.0 and 7.5
  physical stability: normal
[1]; pH 7.5, NaCl 0 mg/mL, 35° C.
  Absorption values at 360 nm: 0.0807
[1]; pH 7.5, NaCl 0 mg/mL, 45° C.
  Absorption values at 360 nm: 0.0859
[1]; pH 7.5, NaCl 1.17 mg/mL, 35° C.
  Absorption values at 360 nm: 0.0799
[1]; pH 7.5, NaCl 1.17 mg/mL, 45° C.
  Absorption values at 360 nm: 0.0937
[1]; pH 7.5, NaCl 8.77 mg/mL, 35° C.
  Absorption values at 360 nm: 0.0846
[1]; pH 7.5, NaCl 8.77 mg/mL, 45° C.
  Absorption values at 360 nm: 0.0902
[1]; pH 7.5, NaCl 29.22 mg/mL, 35° C.
  Absorption values at 360 nm: 0.0861
[1]; pH 7.5, NaCl 29.22 mg/mL, 45° C.
  Absorption values at 360 nm: 0.0942
[2]; 20 mmol/L Na2HPO4-NaH2PO4 pH 7.0, NaCl 0 mmol/L
  Situations of samples after preparation: Clear and transparent
[2]; 20 mmol/L Na2HPO4-NaH2PO4 pH 7.0, NaCl 20 mmol/L
  Situations of samples after preparation: Clear and transparent
[2]; 20 mmol/L Na2HPO4-NaH2PO4 pH 7.0, NaCl 150 mmol/L
  Situations of samples after preparation: Clear and transparent
[2]; 20 mmol/L Na2HPO4-NaH2PO4 pH 7.0, NaCl 500 mmol/L
  Situations of samples after preparation: Clear and transparent
[2]; 20 mmol/L Na2HPO4-NaH2PO4 pH 7.5, NaCl 0 mmol/L
  Situations of samples after preparation: Clear and transparent
[2]; 20 mmol/L Na2HPO4-NaH2PO4 pH 7.5, NaCl 20 mmol/L
  Situations of samples after preparation: Clear and transparent
[2]; 20 mmol/L Na2HPO4-NaH2PO4 pH 7.5, NaCl 150 mmol/L
  Situations of samples after preparation: Clear and transparent
[2]; 20 mmol/L Na2HPO4-NaH2PO4 pH 7.5, NaCl 500 mmol/L
  Situations of samples after preparation: Clear and transparent
[2]; 20 mmol/L NaAC-HAC pH 3.0, NaCl 0 mmol/L
  Situations of samples after preparation: Clear and transparent
